According to the supplement of paper PMC10126150:
± gives the standard deviation of the averaged measurements.

System: ATP
Test: switch fluorescence ratio, 500 uM ATP over buffer (Cy3 cluster intensity, sum of 5 cycles each) (fold (ratio)); higher = stronger signal-on switching upon ATP binding; sequences stand for … in TCGTCGGCAGCGTCAGATGTGTATAAGAGACAGTTTTTTTTTTTTTTTTTTTTTTTTT…TC
Conditions: aptamer strand: ATP DNA aptamer (quencher-CACCTGGGGGAGTATTGCGGAGGAAGG + anchor), 100 nM annealed; ATP concentration: 500 uM
Method in brief: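 After annealing to 100 nM quencher-labelled ATP aptamer, Cy3-labelled switching-strand clusters on a modified Illumina MiSeq flow-cell were imaged in selection buffer. A second image followed after 15 min with 500 uM ATP at 22 °C, and five such buffer/ATP cycles were done, each separated by NaOH stripping and re-annealing. The fluorescence ratio, averaged per switch-domain sequence, is summed target-cycle over summed buffer-cycle Cy3 intensity per cluster, with clusters outside 100-1000 RFU excluded.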
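Further: ATP exposure 15 min at 22 °C before imaging.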

Sequence | switch fluorescence ratio
GGAACGAAAG | 0.995 ± 0.043
GGAACGGGCT | 1 ± 0.021
GGAACGGGGG | 1.02 ± 0.014
GGAACGTGAG | 1.011 ± 0.0011
GGAACTGGCG | 0.938 ± 0.094
GGAACTTGTT | 0.99 ± 0.012
GGAAGAAAAA | 1.01 ± 0.067
GGAAGAAAAC | 1.008 ± 0.0045
GGAAGAAGAT | 0.982 ± 0.033
GGAAGAGAAC | 0.995 ± 0.017
GGAAGATTCG | 0.984 ± 0.03
GGAAGCTTCC | 1.127 ± 0.0032
GGAAGGAGGA | 0.973 ± 0.015
GGAAGGGATG | 1 ± 0.026
GGAAGGGGCT | 1.08 ± 0.12
GGAAGGGGGG | 1.01 ± 0.024
GGAAGGTACG | 0.9856 ± 0.0062
GGAAGGTTCG | 1.01 ± 0.033
GGAAGTATTA | 0.966 ± 0.017
GGAAGTGTGG | 1 ± 0.05
GGAAGTGTGT | 0.949 ± 0.021
GGAAGTTAGA | 0.9819 ± 0.0036
GGAATAGGGG | 0.991 ± 0.018
GGAATAGTGG | 0.982 ± 0.025
GGAATATGTG | 0.998 ± 0.0093
GGAATCATGG | 0.996 ± 0.046

Sequence | switch fluorescence ratio
GGAATCATTT | 0.972 ± 0.015
GGAATCGGAA | 1.02 ± 0.034
GGAATCTGTT | 0.993 ± 0.068
GGAATGAAGG | 1 ± 0.0041
GGAATGGGGC | 0.993 ± 0.052
GGAATGGGTA | 0.997 ± 0.027
GGAATGTACG | 1 ± 0.041
GGAATGTGTT | 0.972 ± 0.013
GGAATTACAG | 1.02 ± 0.046
GGAATTACCG | 1.031 ± 0.0025
GGAATTAGGT | 0.9903 ± 0.0077
GGAATTATAA | 0.99 ± 0.027
GGAATTATCG | 0.98808 ± 0.00049
GGAATTCTCC | 1.21 ± 0.03
GGAATTTCTT | 1.01 ± 0.047
GGAATTTGGC | 1.02 ± 0.052
GGACAAACGT | 1.2 ± 0.052
GGACAAACTC | 1.04 ± 0.036
GGACAAGGGT | 1.02 ± 0.037
GGACAATGGG | 0.985 ± 0.033
GGACACCGGG | 1.04 ± 0.015
GGACAGGCAT | 0.9852 ± 0.0091
GGACAGTGAT | 1.01 ± 0.034
GGACAGTGTA | 1.01 ± 0.02
GGACCGTTTT | 0.998 ± 0.016
GGACGATGGT | 1 ± 0.026

Sequence | switch fluorescence ratio
GGACGCATGG | 1.33 ± 0.071
GGACGGAGGT | 0.959 ± 0.038
GGACGGGGGC | 1 ± 0.016
GGACGGGGGT | 1.01 ± 0.038
GGACGGTAGG | 0.979 ± 0.011
GGACGTAAGG | 0.977 ± 0.016
GGACGTTGAG | 0.985 ± 0.021
GGACTATTTG | 1.003 ± 0.0011
GGACTCAGAA | 0.9867 ± 0.0045
GGACTCGCTC | 1.02 ± 0.018
GGACTCGGGC | 0.985 ± 0.031
GGACTGAAGT | 1.02 ± 0.038
GGACTGGAAG | 1.19 ± 0.051
GGACTTCCTG | 1.003 ± 0.0065
GGACTTTTGT | 0.984 ± 0.02
GGAGAAATCG | 1.06 ± 0.012
GGAGAAATCT | 1.12 ± 0.022
GGAGAATTAT | 0.991 ± 0.024
GGAGACTGGT | 1.02 ± 0.063
GGAGACTTTA | 1.006 ± 0.0056
GGAGAGGGCG | 0.991 ± 0.066
GGAGAGGGTT | 1.022 ± 0.0044
GGAGATTGCG | 0.96 ± 0.046
GGAGATTTGT | 1.01 ± 0.032
GGAGATTTTT | 0.977 ± 0.044
GGAGCAGCTG | 0.97336 ± 0.00053

Sequence | switch fluorescence ratio
GGAGCAGGGA | 0.963 ± 0.025
GGAGCCCCGA | 0.9814 ± 0.0076
GGAGCGGGGA | 1 ± 0.084
GGAGCTGCGG | 0.9914 ± 0.0038
GGAGCTGGGA | 1.0097 ± 0.00033
GGAGGAAATG | 0.949 ± 0.011
GGAGGAAATT | 1.01 ± 0.082
GGAGGATTTA | 0.984 ± 0.042
GGAGGCACTG | 0.9996 ± 0.0095
GGAGGGATCT | 0.966 ± 0.011
GGAGGGATGG | 1.13 ± 0.2
GGAGGGCGGG | 1.02 ± 0.021
GGAGGGGAGG | 0.991 ± 0.029
GGAGGGGATT | 0.982 ± 0.03
GGAGGGGCAA | 1.24 ± 0.032
GGAGGGGCGA | 1.1 ± 0.14
GGAGGGGGAC | 3.13 ± 3.1
GGAGGGGGAG | 0.9817 ± 0.0084
GGAGGGTTAC | 0.972 ± 0.016
GGAGGTGG | 0.942 ± 0.026
GGAGGTGGTT | 0.981 ± 0.018
GGAGGTGTTA | 1.01 ± 0.031
GGAGGTTTAA | 1.01 ± 0.024
GGAGTACAAA | 1.03 ± 0.033
GGAGTATAAG | 0.957 ± 0.012
GGAGTATCCT | 0.981 ± 0.016

Sequence | switch fluorescence ratio
GGAGTATTGG | 1.02 ± 0.022
GGAGTCGACG | 1.02 ± 0.012
GGAGTCGTTT | 0.987 ± 0.027
GGAGTCTGGG | 0.981 ± 0.021
GGAGTGCCGT | 1 ± 0.093
GGAGTGCTGG | 0.995 ± 0.032
GGAGTGGTTC | 0.999 ± 0.013
GGAGTTATAT | 1.105 ± 0.01
GGAGTTGCAG | 0.975 ± 0.063
GGAGTTGGAT | 0.98205 ± 0.00015
GGAGTTTAGC | 1.02 ± 0.029
GGAGTTTTGT | 0.9614 ± 0.0087
GGATAAAATT | 0.996 ± 0.015
GGATAAGAAT | 1.02 ± 0.052
GGATAATGAG | 0.961 ± 0.028
GGATAGGACA | 1 ± 0.04
GGATAGGTAC | 1.05 ± 0.04
GGATAGGTAT | 1.02 ± 0.066
GGATAGTGCT | 0.993 ± 0.012
GGATATGGGT | 0.966 ± 0.011
GGATATTGGC | 0.977 ± 0.092
GGATATTGTC | 0.991 ± 0.024
GGATCACACT | 1.02 ± 0.012
GGATCAGAGA | 1.08 ± 0.023
GGATCCTGGG | 0.993 ± 0.022
GGATCTAGGG | 0.981 ± 0.018

Sequence | switch fluorescence ratio
GGATCTGTCG | 0.98 ± 0.037
GGATCTTGGC | 1.02 ± 0.025
GGATCTTGTG | 1.01 ± 0.021
GGATGACAGA | 0.969 ± 0.01
GGATGAGCTG | 0.978 ± 0.052
GGATGCAGCT | 1.12 ± 0.1
GGATGCGCCT | 1.06 ± 0.15
GGATGCTGAT | 1 ± 0.047
GGATGGAGGC | 0.987 ± 0.059
GGATGGGATA | 1 ± 0.016
GGATGGGCTA | 0.999 ± 0.025
GGATGGGGGC | 0.992 ± 0.023
GGATGGGTGT | 1.02 ± 0.034
GGATGGTATG | 1.01 ± 0.015
GGATGGTGCA | 0.94 ± 0.062
GGATGGTGGG | 1.01 ± 0.042
GGATGTAAGT | 0.97 ± 0.017
GGATGTAGGG | 0.999 ± 0.029
GGATGTGTAA | 1.007 ± 0.007
GGATGTGTTT | 0.999 ± 0.029
GGATTAAAAG | 1.01 ± 0.067
GGATTAATTT | 0.98006 ± 0.00058
GGATTACTAA | 0.99 ± 0.029
